Measured values from publication PMC12199698, “Reliable prediction of protein–protein binding affinity changes upon mutations with Pythia-PPI” (National Science Review, 2025).

Target: T1, SARS-CoV-2 prototype receptor binding domain (SARS-CoV-2 prototype, GISAID …, UniProt P0DTC2)
T1 construct: also called SARS-CoV-2 PT RBD; RBD
Experiment: SPR; BIAcore 8K; antibody captured on a Protein A chip ([…]; running buffer PBST (PBS + 0.05% ([…]) Tween 20); […]; 1:1 (Langmuir) binding model; […]
Details: both partners purified

B1: CB6 antibody (wild type) (antibody, V domains shown)
VH: EVQLVESGGGLVQPGGSLRLSCAASGFTVSSNYMSWVRQAPGKGLEWVSVIYSGGSTFYADSVKGRFTISRDNSMNTLFLQMNSLRAEDTAVYYCARVLPMYGDYLDYWGQGTLVTVSS
VL: not shown
notes: heavy chain variable region of CB6; constant region of human IgG1; light chain variable part of CB6; Ig kappa chain (constant part) to which the light chain was fused; IgG1, kappa; also called WT
Question: Which Kd does the source give for B1 here?
Answer: 14.6 nM
